This assay deals with human pluripotent stem cells cultured in feeder free conditions. Briefly: Corneal epithelial differentiation of pluripotent stem cells cultured in feeder free conditions. Format: cell-based. The method, then:
Feeder-free culture, xeno-free culture of human pluripotent stem cells was based on the use of recombinant Laminin-521 (Biolamina, Sweden) extracellular matrix protein coating and defined, xeno-free culture medium, the Essential 8™ Flex Medium (Life Technologies). The pluripotent stem cells were transferred to the culture system from the standard feeder cell based culture system by manually cutting undifferentiated colony parts with scalpel and plating to ln-521 coated (0.75-1.8 μg/cm^2 overnight at +4° C.) culture plates. The cells are allowed to grow near confluency with medium changed 3-4 times a week, and passaged with TrypLE™ Select Enzyme as single cells twice a week.
Differentiation of pluripotent stem cells cultured on feeder cells to corneal epithelial cells with the induction method disclosed in EP 2828380 comprising TGF-beta inhibitor, Wnt inhibitor and a fibroblast growth factor (10 μM SB-505124+10 μM IWP-2, 50 ng/ml bFGF), followed by differentiation in Cnt-30 epithelial medium on collagen IV matrix, yielded at best >90% p63 positive cells with correct corneal epithelial morphology.
However, prominent neuronal differentiation and cell detachment was recurrently observed as the induction method disclosed in EP 2828380 was used.
The human pluripotent stem cells cultured in the feeder free culture system as described above were differentiated to corneal epithelial cells by detaching the pluripotent cells with TrypLE™ Select Enzyme for 4 min at +37° C. On Day 0, embryoid bodies were created with overnight incubation with 5 μM Blebbistatin (Sigma, B05601) or 10 μM Y-27632 dihydrochloride (R&D Systems, 1254) in a xeno-free culture medium containing: Knockout-Dulbecco's Modified Eagle's Medium (ko-DMEM) supplemented with 15% Xeno-Free Knockout Serum Replacement (XF-ko-SR), 2 mM GlutaMax (all from ThermoFisher Scienfic), 1% MEM Eagle Non-Essential Amino acid solution (NEAA, Cambrex Bio Science), 50 U/ml penicillin/streptomycin (Cambrex Bio Science), 0.1 mM ß-mercaptoethanol (ThermoFisher Scienfic). […]

Consider `Cc1ccc2nc(NC(=O)CSc3nc4c(c(=O)n3-c3ccccc3)SCC4)sc2c1` [IWP-2, reference compound], for which the “cell survival on omitting the substance from the first phase induction medium” value (IWP-2 omitted from induction medium, collagen IV + laminin-521 matrix) was “notably enhanced cell survival”.

B1: BMP-4: bone morphogenetic protein 4 (Peprotech) (protein, UniProt P12644 293-408, looked up)
Bone morphogenetic protein 4: SPKHHSQRARKKNKNCRRHSLYVDFSDVGWNDWIVAPPGYQAFYCHGDCPFPLADHLNSTNHAIVQTLVNSVNSSIPKACCVPTELSAISMLYLDEYDKVVLKNYQEMVVEGCGCR
Regarding B1, the “corneal epithelial cell morphology and marker expression” value (25 ng/ml BMP-4 for 2 to 3 days after initial induction) is “best result of most cells with correct corneal epithelial cell morphology and marker expression”. For the same molecule, the “epithelial morphology and marker expression after additional induction” value (BMP-4 induction (induction phase 3) after SB-505124/bFGF induction, total of 20-30 days of differentiation) is “best result with most cells having correct epithelial morphology and marker expression”.
